These results are taken from PMC9818449.

This assay deals with VN-HOXA9 (human) (UniProt P31269). In words: split reporter (BiFC, NanoBiT); individual BiFC in live HEK293T cells: plix-VN-HOXA9, plix-CC-ORF and plix-mCherry co-transfected, 18 h with doxycycline 100 ng/mL, confocal imaging; HOXA9/PBX1 as calibrator.
Sequence of UniProt P31269 (P31269 whole entry): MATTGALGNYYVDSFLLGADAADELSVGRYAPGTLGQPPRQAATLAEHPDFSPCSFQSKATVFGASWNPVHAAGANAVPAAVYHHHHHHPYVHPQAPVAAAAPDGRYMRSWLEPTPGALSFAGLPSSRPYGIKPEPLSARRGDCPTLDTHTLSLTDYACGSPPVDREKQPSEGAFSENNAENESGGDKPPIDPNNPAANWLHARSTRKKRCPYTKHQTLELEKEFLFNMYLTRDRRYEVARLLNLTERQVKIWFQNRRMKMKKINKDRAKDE

Regarding “CC-C6orf201 (from UniProt B3KW47 1-115) (natural protein)”, the BiFC fluorescence as percent of HOXA9/PBX1 BiFC was under 15%.
